Test results reported in the nanobody polyreactivity screen of Harvey et al. (2022).

Experiment: yeast display, Sf9 membrane polyspecificity reagent, FACS + sequencing; frameworks hold sequencing errors
Summary of the method: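 In a synthetic yeast display library (Saccharomyces cerevisiae BJ5465), nanobody expression was induced with galactose for 36–48 hours. FACS gates were set low and high (top ~1%) using anti-HA fluorescence for expression and streptavidin fluorescence for binding of the Sf9 membrane reagent. Each polyreactivity label is drawn from the gate of origin.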

| Sequence | polyreactivity (PSR sort gate) |
| --- | --- |
| QVQLVESGGGLVQAGGSLRLSCAASGRTSRYAMGWYRQAPGKERELVAAISRNGGTTSYADSVKGRFTISRDNAKNTVYLQMNSLKPEDTAVYYCNAYSAFVPPTRGYYWGQGTQVTVSS | high polyreactivity |
| QVQLQDSGGGLEQAGGSLRMSCAANGNIFDADIVGRYRQAQGKKRELVASITDGGITNYADSVKGRFTISRDNAKYTVYLQMNSQNPEDTAVYYCAAIAYPDIPTYFDYDSDFFYWGQGTQVTVSS | high polyreactivity |
| QDQLVESGGGLVQAGGSLRLSCAASGRTFVFYAMGWYRQAPGKERELVAAITSGTSTNYADSVKGRFTISRDNAMNTVYLQMNSLKPEDTAVYYCAAYWTDLTYSIGFGYWGQGTQVTVSS | low polyreactivity |
| QVQLVESGGGIVQAGGSLRLSFAASGSTFNSNVMGWYRQAPGKERELVAAISRSGGNTYYADSVKGRFTISRDNAKNTVYLLMNSLKPEDTAVYYCNKAGRYPYDYWGQGTQVTVSS | high polyreactivity |
| QVQLVESGGGLVQAGGSLRLSCAASGFIFRSYAMGWYRQAPGKEREFVAAITTRGTGTYYADSVKGRFTISRDNAKNTVYLQMNSLKPEDTAVYDCAARRGWGDDYWGQGTQVTVSS | high polyreactivity |
| QVQLVGSGGGLVQAGGSLRLSCAASGSTIKYYAMGWYRQAPGKERELVARITSDGGSTFYADSVKGRFTISRDNAKNTAYVQMNSLKPEDPAVYYCNTAYAFRHWWFYPMDYWGQGTQVTVSA | high polyreactivity |
| QVQLVESGGGLVQAGGSLRLSCAASGSTSVQYAMGWYRQAPGKERELVAAIDRSGGSTSYADSVKGRFTISRDNAKNTVYLQMNTLKPEDTAVYYCNADPVRSTYSYDYWGQGTQVTVSS | low polyreactivity |
| QVQLVESGGGLVQAGGSLRLSCAASGINFTSYAMGWYRQAPGKERELVAAISSSGVRTYYADSVKGRFTISRDNAKNTVYLQMNSQKPEDTAVYYCATRRRVLYGYDYWGQGTQVTVSS | high polyreactivity |
| QVHLVESGGGLVQAGGSLRLSCAASGSILLWNTMGWYRQAPGKERELVADIRLSASSTYYADSVKGRFTISRDNAKNTVYLQMNSLKPEDTAVYYCAADEYTPEYCQGYDYWGQGTQVTVSS | low polyreactivity |
| QVQLVESGGGLVQAGGSLRLSCAASGFIFRRNAMGWSRQAPRKERELVAAISSRGGTTYYADSVKGRFTISRDNAKNTVYLQMNSLKPEDTAVYYCNAVKFGATAYDYWGQGTQVTVSS | high polyreactivity |
| QVQLVESGGGLVQAGGSLRLSCAASGRTFYSNAMGWYRQAPGKERELVAGINIGGGSTYYADSVKGRFTISRDNAKNTVYLQMNSLKPEDTAVYYCAARRWGAYRHGYWGQGTQVTVSS | high polyreactivity |
| QVQLVESGGGLVQAGGSLRLSCASSGFIFSSYAMGWYRQAPGKERELVARISLSGGSTFYADSVKGRFTISRDNAKNTVYFQMNSLKPEDTAVYYCAARDFSTHFSPMDYWGQGTQVTVSS | low polyreactivity |
| QVQLVESGVGLVQAGGSLRLSCASSGSIFTPYAMGCYRQAPGKESELVAAISRSGGSTYYADSVKGRFTISRDNAKNTVFLQMNRLKPEDTAVYYCAVVVYDIYGYESDYWGEGTQVTVSS | low polyreactivity |
| QVQLVDSGGGLVQAGGSLRLSCAASGGIFGYGMGWYRQAPGKERELVAAITRSGGSTSYADSVKGRFTISRDNAKYTVYLQMNSVKPEDTAVYFCASRTRYSRYKSGYWGQGTQVTVSS | high polyreactivity |
| QVQLVESGGGLVQAGGSLRLSCAASGFTFKYYAMGWYRQAPGKERELVAAIRRSAGSTNYADSVKGRFTISRDNAKNTVYLQMNSLKPEDTAVYYCNTVGTRQPMDYWGQGTQVTVSS | high polyreactivity |
| QVQLVESGGGLVQAGGSLRLSCAPTGSIFSVYAMGWYRHAPGKESELVATISSSGSTNYADSVKGRFTISRDNAKNTVYLQMNSLKPEDTAVYYCNVVGEYTQSDYSGYDYWGQGTQVTLSS | low polyreactivity |
| QVQLVESGGGLVQAGGSLRLSCAASGRTFGSYAMGWYRQAPGKERELVAAINWSGSSTYYADSVKGRFTISRDNAKNTVYLQMNSLKPEDTAVYYCAATPSFYRSYQGMDYWGQGTQVTVSS | high polyreactivity |
| QVQLVESGGGLVQAGGSLRLSCAASGRIFGGYAMGWYRQAPGKERELVAAISARGGSTYYADSVKGRFTISRDNAKNTVYLQMNSLKPEDTAVYYCAAAEASSRGYYDYDYWGQGTQVTVSS | low polyreactivity |
| QVQLVESGGGLVQAGGSLRLSCAASGSTFGGNAMGWYRQAPGKERELVAAISSSGGSTYYADSVKGRFTISRDNAKITVYLQMNSLKPEDTAVYYCAALYHWTYDYWGQGTQVTVSS | low polyreactivity |
| QVQLVESGGGLVQAGGSLRLSCAASGRTFARYGMGWYRQAPGKERELVATINWRSAGSTYYADSVKGRFTISRDNAKNTVYLLMNSLKPEDTAVYYCNVDSGRSYRVARYDYWGQGTQVTVSS | low polyreactivity |
| QVKRVESGGGLVQAGGSLRLSCAASGIIFTYYAMGWYRQAPGKERELVAAISWTGGRTYFADSVKGRFTISRDNAKNTVYLQMNSLKREDTAVYYCAAKQYTRFGYYYWGQGTQVTVSS | high polyreactivity |
| QVQLVESGGGLVQAGGSLRLSCAASGSTFDRNAMGWYRQAPGKERELVAAINWRGGSTYYADSVKGRFTISRDNAKNTVYLQMNSLKPEDTAVYYCAKRQYSSDGRGFGYWGQVTQVTVSS | high polyreactivity |

| Sequence | polyreactivity (PSR sort gate) |
| --- | --- |
| QVQLVESGGGLVQAGGSLRLSCAASGSTFAGNGMGWYRQAPGKERELVAGIDVTGGSTYYADSVKGRFTISRDNAKNTVYLQMNRLKPEDTAVYYCNARYVYHSSFAGFDYWGQGTQVTVSS | low polyreactivity |
| QVQLVESGGGLVQAGGSLRLSCASSGLIFVVYAMGWYRQAPGKERELVAAISTSGDRTYYADSVKGRFTISRDNAKNTVYLLMNSLKPEDTAVYYCAAGRRKVPYCREYYYWGQVTQVTVSS | high polyreactivity |
| QVQLVESGGGLVQAGGSLRLSCAASGLIFRHYAMGWYRQAPGKERELVAAINWDGTSTDYADSVKGRFTISRDNAKNTVYLQMNSLKPEDTAVYYCAAEGHTAFVVYRVSPLQYDYWGHGTQVTVSS | low polyreactivity |
| QVQLVESGGGLVQAGGSLRLSCAASGITFPRYTMGWYRQAPGTERELVAAISSGGSTYYADSVKGRFTISRDNAKNTVYLQMNSLKPEDTAVYYCNAEVPYWYYIYDYWGQGTQVTVSS | high polyreactivity |
| QVQLVESGGGLVQAGGSLRLSCAASGGTFWYYAMGWYRQAPGKEREFVAAISSRGGNTYYADSVKGRFTISRDNAKNTVYLQMNSLKPEDTAVYYCNAKTHRRYSENYYWGQGTQVTVSS | high polyreactivity |
| QVQLVESGGGLVQAGGSLRLICAASGLTFSRYAMGWYRQAPGKERELVAAITWSGSSTYYADSVKGRFTISRDKAKNTVYLQMNSLKPEDTAVYYCAARYGYSRGPYYRSDYWGQGTQVTVSS | high polyreactivity |
| QVQLVESGGGLVQAGGSLSLSCAASGSTLRQYAMGWYRQAPGKERELVAGISYRGGRTYYADSVKVRFTISRDNAKNTVYLQMNSLKPEDTAVYYCNALRHYGDISVDCDDYWGQGTQVTVSS | high polyreactivity |
| QVQLVESGAGLVQAGGSLRLICAASGSTSTTYTMGWYRQAPGKERELVAAISYSGGSTYYADSVKGRFTISRDNAKNTVYLQMNSLKPEDTAVYYCAAQSFVGWREYESWGQGTQVTVSS | high polyreactivity |
| QVQLVESGGGLVQAGGSLRLSCAASGRIFAVYAMGWYRQAPGKEREFVAAISYSGGITYYADSVKGRFTISRDNAKNTVYLQMNSLKPEDTAVYYCNAYYYFWGQGTQVTVSS | low polyreactivity |
| QVQLVASAGGLVQAGGSLRFSCAASGRSFKRYTMGWYRQAPGKERELVAAITKRADRTNYADSVKGRFTISRDNAKNTVYLQMNSLKPEDTAVYYCYADGQNDLPSNGYISYKYDYWGQGTQVTVSS | low polyreactivity |
| QVQLVESGGGLVQAGGSLRLSCAASGSTFGDYAMGGYRQAPGKERELVAAISFSDGSTYYADSVKGRFTISRDNAKNTVYLQMNSLKPEDTAVYYCAKDAYWGYRWYTYDYWGQGTQVTVSS | low polyreactivity |
| QVQLVESGGGLVQAGGSLRLSCAASGRTFPGNAMGWYRQAPGKERELVATISSGGTTNYADSVKGRFTISRDNAKTTVYLQMNSLKPEDTAVYYCATDTYHHKADYEYWGKGTQVTVSS | low polyreactivity |
| QVQLVESGRRLVQAGGSLRLSCAASGSTFYGYGMGWYRPAPRQERELVAAITGSGDTTYYADSVKGRFTISRDNAKNTVYLQMNSLKPEDTAVYYCNARWHAEYDYWGQGTQVTVSS | low polyreactivity |
| QVQVVESGGGLVQAVGSLRLSCAASGRIFRGNAMGWDRQAPRKERELVAAISRRSGSTYYADSVKGRFTISRDNAKNTVYLQMNSLIPEDTAVYYCAATSSLGDFSYDSWGQGTQVTESS | high polyreactivity |
| QVQLVESGGGVVQAGGSLRLSCAASGRIFKSYAMGWYRPAPGKERELVASISYTGGSTYYAASVKGRFTISRDNAKNTVYLQMNRLKPEDTAVYDCAAKRVRSAGSYGYWGQGTQVTVSS | low polyreactivity |
| QVQLVESGGGLVQAGGSLRLSCAASGRIFSPNAMGWYRQAPGKERELVAAITRGGSTNYADSVKGRFTISRDNAKNTVYLQMNSLKPEDTAVYYCAAQLAKTIRGRGYNSWGQGTKVTVSS | low polyreactivity |
| QDQLVDSGGGLVQAGGSLRLSCAASGSTGTYMGWYRQAPGKERELVAAIDNICDNTYNADSVKGRFTISRDNAKNTVYLQMNSLIPEDSAVYYCAADYYVYYPWLFEYDYWGQGTQVTVSS | low polyreactivity |
| QVQLVESGGGLVQAGGSLRLSCAASGRTLQSYAMGWYRQAPGKERELVAAITSTGTTYYADSVKGRFTISRDNAKNTVYLQMNSLKPEDTAVYYCAAGGSIVLGHYHYVKMYYWGQGTQVTVSS | high polyreactivity |
| QVQLVESGGGLVQAGGSLRLSCAASGSIFWYYAMGWSRQAPGKERELVAAITGSGGSTYYADSVKGRFTISRDNAKTTVYLQLNSLKPEDTAVYYCAAEAFFWYYGWYDYWGQGTQVTVSS | high polyreactivity |
| QVQLVESGGGLVQAGGSLRLSCAASGRTFTDYTMGWSRQAPGKERELVASISSGVTYADSVKGRFTISRDNAKYTVYLQMNSLKPEDTEVYYCAARLWYVQGYVPYVHHRFDYWGQGTQVTVSS | low polyreactivity |
| QVQLVESGGGLVQAGGSLRLSCAASGITFYRNAMGWYRQAPGKERELVATITRGGSTYYADSVKGRFTISRDNAKNTVYLQMNSLKPEDTAVYYCNRAGGYRTTFYSWGQGTQVTVSS | high polyreactivity |
